± gives the standard deviation of the averaged measurements.

Experimental findings from the supplement of paper PMC10126150 are described below.

The data set deals with ATP. Kind of data set: switch fluorescence ratio, 500 uM ATP over buffer (Cy3 cluster intensity, sum of 5 cycles each) (fold (ratio)); higher = stronger signal-on switching upon ATP binding; sequences stand for … in TCGTCGGCAGCGTCAGATGTGTATAAGAGACAGTTTTTTTTTTTTTTTTTTTTTTTTT…TC. Conditions: aptamer strand: ATP DNA aptamer (quencher-CACCTGGGGGAGTATTGCGGAGGAAGG + anchor), 100 nM annealed; ATP concentration: 500 uM. Summed up:
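Cy3-labelled switching-strand clusters on a modified Illumina MiSeq flow-cell were annealed to 100 nM quencher-labelled ATP aptamer and imaged first in selection buffer, then after 15 min with 500 uM ATP at 22 °C. NaOH stripping and re-annealing separated each of five buffer/ATP cycles, and clusters outside 100-1000 RFU were excluded. The fluorescence ratio sums target-cycle Cy3 intensity over buffer-cycle Cy3 intensity per cluster and averages it per switch-domain sequence.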
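Also: ATP exposure 15 min at 22 °C before imaging.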

GACATGGGGC: the switch fluorescence ratio amounted to 1.04 ± 0.058.

GACATGGTTA: the switch fluorescence ratio was 1.02 ± 0.051.

With GACATTATAT, the switch fluorescence ratio was 1.028 ± 0.0025.

As for GACATTATGC, the switch fluorescence ratio worked out at 1.03 ± 0.014.

As for GACATTCACT, the switch fluorescence ratio stood at 1.108 ± 0.0088.

GACATTGTTG: the switch fluorescence ratio stood at 1.04 ± 0.055.

With GACATTTTGG, the switch fluorescence ratio stood at 1.03 ± 0.042.

In the case of GACCAACAGT, the switch fluorescence ratio stood at 1.03 ± 0.021.

In the case of GACCATCTGT, the switch fluorescence ratio was 1.02 ± 0.024.

Regarding GACCCGGCTA, the switch fluorescence ratio was found to be 1.04 ± 0.018.

For the sequence GACCGAGGGG, the switch fluorescence ratio is 0.989 ± 0.026.

GACCTAGTGT: the switch fluorescence ratio was determined as 1.03 ± 0.019.

On to GACCTGTTTG, for which the switch fluorescence ratio worked out at 0.987 ± 0.017.

Regarding GACCTTTATA, the switch fluorescence ratio came out at 0.9914 ± 0.0062.

GACGAAAAGG: the switch fluorescence ratio was 1.75 ± 1.1.

Turning to GACGAAAGGC, the switch fluorescence ratio worked out at 1.05 ± 0.02.

Turning to GACGAAATTG, the switch fluorescence ratio worked out at 0.99836 ± 0.0003.

For GACGAAGATC, the switch fluorescence ratio was determined as 1.11 ± 0.016.

With GACGAAGCGG, the switch fluorescence ratio was found to be 2.41 ± 0.047.

GACGAGGGAT: the switch fluorescence ratio came to 1.1 ± 0.034.

Take GACGAGGGGG: the switch fluorescence ratio amounted to 0.949 ± 0.11.

On to GACGATGTAA, for which the switch fluorescence ratio came out at 1.18 ± 0.018.

On to GACGCATGGT, for which the switch fluorescence ratio was 2.37 ± 0.15.

Turning to GACGCCTAGT, the switch fluorescence ratio came to 1.036 ± 0.0021.

For GACGCGGATG, the switch fluorescence ratio was 1.04 ± 0.02.

For the sequence GACGCGGCGT, the switch fluorescence ratio was found to be 1.02 ± 0.029.

As for GACGCGGGTC, the switch fluorescence ratio is 1.13 ± 0.026.

Take GACGCGTCTC: the switch fluorescence ratio was determined as 1.033 ± 0.0057.

Turning to GACGCTCATG, the switch fluorescence ratio is 1.04 ± 0.033.

For the sequence GACGCTTCG, the switch fluorescence ratio turned out to be 0.931 ± 0.017.

Turning to GACGGACAGG, the switch fluorescence ratio is 1.06 ± 0.024.

GACGGACAGT: the switch fluorescence ratio was found to be 1.13 ± 0.076.

On to GACGGAGAGA, for which the switch fluorescence ratio amounted to 1.23 ± 0.029.

As to GACGGGATCT, the switch fluorescence ratio was found to be 1.042 ± 0.0092.

GACGGGATTG: the switch fluorescence ratio amounted to 1.015 ± 0.006.

Take GACGGGCACA: the switch fluorescence ratio came to 1.13 ± 0.028.

Consider GACGGGGACC, for which the switch fluorescence ratio was determined as 1.06 ± 0.063.

As to GACGGGGATG, the switch fluorescence ratio is 1.03 ± 0.012.

For the sequence GACGGGGGTG, the switch fluorescence ratio is 1.01 ± 0.023.

On to GACGGGGTGG, for which the switch fluorescence ratio came out at 1.01 ± 0.059.

Take GACGGGTCTC: the switch fluorescence ratio turned out to be 1.001 ± 0.0098.

With GACGGTAGAG, the switch fluorescence ratio is 1.03 ± 0.02.

For the sequence GACGGTTTTT, the switch fluorescence ratio is 1.01 ± 0.024.

As to GACGTAGAGC, the switch fluorescence ratio stood at 1.08 ± 0.026.

For GACGTATAG, the switch fluorescence ratio worked out at 0.994 ± 0.022.

For the sequence GACGTATTTT, the switch fluorescence ratio worked out at 0.9993 ± 0.0013.

Turning to GACGTCAGAT, the switch fluorescence ratio came out at 0.9767 ± 0.0018.

With GACGTCCCAG, the switch fluorescence ratio worked out at 0.966 ± 0.061.

Regarding GACGTCTGGG, the switch fluorescence ratio turned out to be 0.986 ± 0.013.

With GACGTGCGAC, the switch fluorescence ratio is 1.29 ± 0.079.

On to GACGTTAATA, for which the switch fluorescence ratio was 1.41 ± 0.04.

Consider GACGTTACCA, for which the switch fluorescence ratio amounted to 1.61 ± 0.063.

Consider GACGTTATGG, for which the switch fluorescence ratio came to 1.04 ± 0.016.

Take GACGTTCTTG: the switch fluorescence ratio came out at 0.9862 ± 0.0027.

With GACGTTTCTG, the switch fluorescence ratio came to 1.01 ± 0.098.

In the case of GACGTTTTCC, the switch fluorescence ratio stood at 0.995 ± 0.097.

Take GACGTTTTTG: the switch fluorescence ratio came out at 0.996 ± 0.011.

Take GACTACGTTT: the switch fluorescence ratio is 1.02 ± 0.013.

Regarding GACTAGTGAA, the switch fluorescence ratio was determined as 0.9906 ± 0.0079.

Consider GACTAGTTGG, for which the switch fluorescence ratio came out at 0.983 ± 0.025.

Take GACTATAGAT: the switch fluorescence ratio stood at 1.05 ± 0.034.

For GACTATGAAG, the switch fluorescence ratio was determined as 0.99431 ± 0.00011.

Turning to GACTATTGGT, the switch fluorescence ratio was 0.969 ± 0.0098.

As for GACTCGAGGG, the switch fluorescence ratio stood at 0.99 ± 0.083.

Take GACTCGATCC: the switch fluorescence ratio came out at 1.08 ± 0.023.

GACTGCATCG: the switch fluorescence ratio was 1.03 ± 0.015.

Regarding GACTGCTATA, the switch fluorescence ratio is 1.44 ± 0.043.

As for GACTGGATGG, the switch fluorescence ratio came out at 0.98 ± 0.011.

For GACTGGCACG, the switch fluorescence ratio came out at 1.03 ± 0.034.

For GACTGGGACT, the switch fluorescence ratio was found to be 1.08 ± 0.05.

For GACTGGGGGT, the switch fluorescence ratio is 0.998 ± 0.033.

For GACTGGGTCG, the switch fluorescence ratio was determined as 1.06 ± 0.012.

For the sequence GACTGTAAGG, the switch fluorescence ratio was 0.997 ± 0.08.

Take GACTGTGATG: the switch fluorescence ratio was 0.9708 ± 0.0097.

For the sequence GACTTAGGGA, the switch fluorescence ratio amounted to 0.9949 ± 0.0013.

Turning to GACTTCCATT, the switch fluorescence ratio amounted to 1.07 ± 0.016.

GACTTTATGG: the switch fluorescence ratio stood at 0.99 ± 0.035.

For the sequence GACTTTGAAT, the switch fluorescence ratio is 1.014 ± 0.0089.

GACTTTTTGT: the switch fluorescence ratio was 0.994 ± 0.011.

For the sequence GAGAAAAACC, the switch fluorescence ratio worked out at 1.02 ± 0.041.

Take GAGAAAAGTG: the switch fluorescence ratio worked out at 1.03 ± 0.086.

For the sequence GAGAAACATT, the switch fluorescence ratio worked out at 1.06 ± 0.029.

As for GAGAAAGCAG, the switch fluorescence ratio was found to be 0.977 ± 0.025.

For GAGAAAGGCT, the switch fluorescence ratio came to 0.97 ± 0.019.

For GAGAAAGGGT, the switch fluorescence ratio came to 0.988 ± 0.019.

For GAGAAATCTT, the switch fluorescence ratio was 1.01 ± 0.03.

On to GAGAAATGAT, for which the switch fluorescence ratio worked out at 0.984 ± 0.0087.

For GAGAAGCACG, the switch fluorescence ratio came out at 0.978 ± 0.055.

For GAGAAGTTTG, the switch fluorescence ratio was 1.01 ± 0.018.

Regarding GAGAATAGAG, the switch fluorescence ratio is 0.989 ± 0.022.

On to GAGAATAGCG, for which the switch fluorescence ratio turned out to be 0.988 ± 0.028.

With GAGAATCACG, the switch fluorescence ratio was found to be 0.9961 ± 0.0024.

In the case of GAGAATCGGG, the switch fluorescence ratio worked out at 0.9564 ± 0.0089.

Turning to GAGACAAGGA, the switch fluorescence ratio was determined as 0.97095 ± 8.1e-05.

As for GAGACATGTT, the switch fluorescence ratio stood at 0.99 ± 0.065.

Turning to GAGACCTTTT, the switch fluorescence ratio is 1.13 ± 0.17.

Regarding GAGAGATGGG, the switch fluorescence ratio came out at 0.988 ± 0.018.

Regarding GAGAGGAGGC, the switch fluorescence ratio is 1.07 ± 0.063.

For the sequence GAGAGGCAAA, the switch fluorescence ratio is 1.01 ± 0.018.

As for GAGAGGGGAT, the switch fluorescence ratio worked out at 1.03 ± 0.036.

GAGAGGGGCA: the switch fluorescence ratio was 0.999 ± 0.018.

Regarding GAGAGGTCGG, the switch fluorescence ratio was determined as 1.012 ± 0.0016.

Regarding GAGAGGTTGT, the switch fluorescence ratio is 1 ± 0.024.

For GAGAGTCTTC, the switch fluorescence ratio was 0.985 ± 0.0088.

As for GAGAGTGCGG, the switch fluorescence ratio came out at 1.04 ± 0.0067.

GAGAGTTGCG: the switch fluorescence ratio came to 1.04 ± 0.027.

Turning to GAGAGTTGGG, the switch fluorescence ratio came out at 0.985 ± 0.022.

Take GAGATAAGCC: the switch fluorescence ratio was determined as 1.03 ± 0.022.

Take GAGATAGGTA: the switch fluorescence ratio stood at 0.997 ± 0.024.

Consider GAGATATGAG, for which the switch fluorescence ratio is 1.02 ± 0.024.

As to GAGATATTTA, the switch fluorescence ratio stood at 0.9905 ± 0.0036.

As to GAGATCGAGG, the switch fluorescence ratio amounted to 1.03 ± 0.017.

Regarding GAGATCTGCT, the switch fluorescence ratio worked out at 0.957 ± 0.015.

On to GAGATGGTGC, for which the switch fluorescence ratio came out at 0.99 ± 0.053.

GAGATGTTAG: the switch fluorescence ratio stood at 0.971 ± 0.017.

As to GAGATTGCGT, the switch fluorescence ratio is 1.01 ± 0.028.

As for GAGATTGGTT, the switch fluorescence ratio came to 1.007 ± 0.0072.

As for GAGATTGTGA, the switch fluorescence ratio amounted to 0.992 ± 0.039.

On to GAGATTTAGC, for which the switch fluorescence ratio worked out at 1.03 ± 0.035.

Regarding GAGATTTTGT, the switch fluorescence ratio is 0.998 ± 0.036.
